US20140287471A1, “VARIANT CBH I POLYPEPTIDES WITH REDUCED PRODUCT INHIBITION” (BP CORPORATION NORTN AMERICA INC., priority 2011, published 2014)
Like-named read-outs stand apart in the source and are kept apart here.

Key:
[1] = 4-MUL cellobiose tolerance/inhibition assay, dose-response IC50 (Example 2); format: biochemical; conditions: for IC50: averaged IC50 from Tables 8-11; for 268 +411A Expected IC50: expected IC50 (additive values of single mutations); for 268_+411A Synergistic**↑: measured versus expected additive IC50
How it was run: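 IC50 reflects cellobiose concentration halving activity, fitted by four-parameter dose-response with zero activity fixed at knockout-strain background. Assays used 4-MUL (0.5 mM) with enzyme at 5 μg/mL or less, pH 6 MES, 25 mM gluconolactone blocking BG, cellobiose up to 100 mM; 4-MU fluorescence read.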

[2] = 4-MUL assay, specific activity (Example 2); format: biochemical; conditions: for 268— +411 A Measured Specific Activity (SA) / 268— +411 A Δ SA* (change in specific activity; ratio of variant: WT): double mutant 268X+411A
How it was run: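 Specific activity derived from 4-MU standard curves and HPLC-quantified enzyme. Initial rates were taken over the first 15 min, with an endpoint read at 1 h (pH 10 carbonate quench), all at ex 365/em 450 nm. Conditions: 0.5 mM 4-MUL, 5 μg/mL enzyme, MES pH 6, 25 mM gluconolactone, cellobiose optional.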

[3] = double mutant 268X+411A, read-out: 268_+411A Measured (merged IC50)

| Molecule | IC50 [1, 3] [µM] | 268 +411A Expected IC50 ([1]; double mutant 268X+411A) [µM] | 268_+411A Synergistic**↑ ([1]; double mutant 268X+411A) | 268— +411 A Measured Specific Activity (SA) [2] [μmol 4 MU/min/mg CBH I] | 268— +411 A Δ SA* (change in specific activity; ratio of variant: WT) [2] | IC50 ([1]; double mutant 268A+411X, read-out: 268A+411— Measured (merged IC50)) [µM] | 268A+411— Δ SA* (change in specific activity; ratio of variant: WT) ([2]; double mutant 268A+411X) | IC50 ([1]; 268 single substitution, read-out: 268— Measured (merged IC50)) [µM] | 268— Measured Specific Activity (SA) ([2]; 268 single substitution) [μmol 4 MU/min/mg CBH I] | 268— Δ SA* (change in specific activity; ratio of variant: WT) ([2]; 268 single substitution) |
| --- | --- | --- | --- | --- | --- | --- | --- | --- | --- | --- |
| 268Arg+411A (protein, UniProt P62694 18-513, looked up, variant R411A) Exoglucanase 1: QSACTLQSETHPPLTWQKCSSGGTCTQQTGSVVIDANWRWTHATNSSTNCYDGNTWSSTLCPDNETCAKNCCLDGAAYASTYGVTTSGNSLSIGFVTQSAQKNVGARLYLMASDTTYQEFTLLGNEFSFDVDVSQLPCGLNGALYFVSMDADGGVSKYPTNTAGAKYGTGYCDSQCPRDLKFINGQANVEGWEPSSNNANTGIGGHGSCCSEMDIWEANSISEALTPHPCTTVGQEICEGDGCGGTYSDNRYGGTCDPDGCDWNPYRLGNTSFYGPGSSFTLDTTKKLTVVTQFETSGAINRYYVQNGVTFQQPNAELGSYSGNELNDDYCTAEEAEFGGSSFSDKGGLTQFKKATSGGMVLVMSLWDDYYANMLWLDSTYPTNETSSTPGAVAGSCSTSSGVPAQVESQSPNAKVTFSNIKFGPIGSTGNPSGGNPPGGNRGTTTTRRPATTTGSSPGPTQSHYGQCGGIGYSGPTVCASGTTCQVLNPYYSQCL | 1220 | 1220 | 1.0 | 0.53 | 0.7 | – | – | – | – | – |
| 268Lys+411A (protein, UniProt P62694 18-513, looked up, variant R268K R411A) Exoglucanase 1: QSACTLQSETHPPLTWQKCSSGGTCTQQTGSVVIDANWRWTHATNSSTNCYDGNTWSSTLCPDNETCAKNCCLDGAAYASTYGVTTSGNSLSIGFVTQSAQKNVGARLYLMASDTTYQEFTLLGNEFSFDVDVSQLPCGLNGALYFVSMDADGGVSKYPTNTAGAKYGTGYCDSQCPRDLKFINGQANVEGWEPSSNNANTGIGGHGSCCSEMDIWEANSISEALTPHPCTTVGQEICEGDGCGGTYSDNKYGGTCDPDGCDWNPYRLGNTSFYGPGSSFTLDTTKKLTVVTQFETSGAINRYYVQNGVTFQQPNAELGSYSGNELNDDYCTAEEAEFGGSSFSDKGGLTQFKKATSGGMVLVMSLWDDYYANMLWLDSTYPTNETSSTPGAVAGSCSTSSGVPAQVESQSPNAKVTFSNIKFGPIGSTGNPSGGNPPGGNRGTTTTRRPATTTGSSPGPTQSHYGQCGGIGYSGPTVCASGTTCQVLNPYYSQCL | 6140 | 1290 | 4.8 | – | 0.7 | – | – | – | – | – |
| 268Pro+411A (protein, UniProt P62694 18-513, looked up, variant R268P R411A) Exoglucanase 1: QSACTLQSETHPPLTWQKCSSGGTCTQQTGSVVIDANWRWTHATNSSTNCYDGNTWSSTLCPDNETCAKNCCLDGAAYASTYGVTTSGNSLSIGFVTQSAQKNVGARLYLMASDTTYQEFTLLGNEFSFDVDVSQLPCGLNGALYFVSMDADGGVSKYPTNTAGAKYGTGYCDSQCPRDLKFINGQANVEGWEPSSNNANTGIGGHGSCCSEMDIWEANSISEALTPHPCTTVGQEICEGDGCGGTYSDNPYGGTCDPDGCDWNPYRLGNTSFYGPGSSFTLDTTKKLTVVTQFETSGAINRYYVQNGVTFQQPNAELGSYSGNELNDDYCTAEEAEFGGSSFSDKGGLTQFKKATSGGMVLVMSLWDDYYANMLWLDSTYPTNETSSTPGAVAGSCSTSSGVPAQVESQSPNAKVTFSNIKFGPIGSTGNPSGGNPPGGNRGTTTTRRPATTTGSSPGPTQSHYGQCGGIGYSGPTVCASGTTCQVLNPYYSQCL | 8570 | 1700 | 5.1 | 2.16 | 2.8 | – | – | – | – | – |
| 268A+411Ile (protein, UniProt P62694 18-513, looked up, variant R268A R411I) Exoglucanase 1: QSACTLQSETHPPLTWQKCSSGGTCTQQTGSVVIDANWRWTHATNSSTNCYDGNTWSSTLCPDNETCAKNCCLDGAAYASTYGVTTSGNSLSIGFVTQSAQKNVGARLYLMASDTTYQEFTLLGNEFSFDVDVSQLPCGLNGALYFVSMDADGGVSKYPTNTAGAKYGTGYCDSQCPRDLKFINGQANVEGWEPSSNNANTGIGGHGSCCSEMDIWEANSISEALTPHPCTTVGQEICEGDGCGGTYSDNAYGGTCDPDGCDWNPYRLGNTSFYGPGSSFTLDTTKKLTVVTQFETSGAINRYYVQNGVTFQQPNAELGSYSGNELNDDYCTAEEAEFGGSSFSDKGGLTQFKKATSGGMVLVMSLWDDYYANMLWLDSTYPTNETSSTPGAVIGSCSTSSGVPAQVESQSPNAKVTFSNIKFGPIGSTGNPSGGNPPGGNRGTTTTRRPATTTGSSPGPTQSHYGQCGGIGYSGPTVCASGTTCQVLNPYYSQCL | – | – | – | – | – | 32700 | 0.5 | – | – | – |
| 268Ala (protein, UniProt P62694 18-513, looked up, variant R268A) Exoglucanase 1: QSACTLQSETHPPLTWQKCSSGGTCTQQTGSVVIDANWRWTHATNSSTNCYDGNTWSSTLCPDNETCAKNCCLDGAAYASTYGVTTSGNSLSIGFVTQSAQKNVGARLYLMASDTTYQEFTLLGNEFSFDVDVSQLPCGLNGALYFVSMDADGGVSKYPTNTAGAKYGTGYCDSQCPRDLKFINGQANVEGWEPSSNNANTGIGGHGSCCSEMDIWEANSISEALTPHPCTTVGQEICEGDGCGGTYSDNAYGGTCDPDGCDWNPYRLGNTSFYGPGSSFTLDTTKKLTVVTQFETSGAINRYYVQNGVTFQQPNAELGSYSGNELNDDYCTAEEAEFGGSSFSDKGGLTQFKKATSGGMVLVMSLWDDYYANMLWLDSTYPTNETSSTPGAVRGSCSTSSGVPAQVESQSPNAKVTFSNIKFGPIGSTGNPSGGNPPGGNRGTTTTRRPATTTGSSPGPTQSHYGQCGGIGYSGPTVCASGTTCQVLNPYYSQCL | – | – | – | – | – | – | – | 570 | 2.97 | 3.9 |
| 268Ser+411A (protein, UniProt P62694 18-513, looked up, variant R268S R411A) Exoglucanase 1: QSACTLQSETHPPLTWQKCSSGGTCTQQTGSVVIDANWRWTHATNSSTNCYDGNTWSSTLCPDNETCAKNCCLDGAAYASTYGVTTSGNSLSIGFVTQSAQKNVGARLYLMASDTTYQEFTLLGNEFSFDVDVSQLPCGLNGALYFVSMDADGGVSKYPTNTAGAKYGTGYCDSQCPRDLKFINGQANVEGWEPSSNNANTGIGGHGSCCSEMDIWEANSISEALTPHPCTTVGQEICEGDGCGGTYSDNSYGGTCDPDGCDWNPYRLGNTSFYGPGSSFTLDTTKKLTVVTQFETSGAINRYYVQNGVTFQQPNAELGSYSGNELNDDYCTAEEAEFGGSSFSDKGGLTQFKKATSGGMVLVMSLWDDYYANMLWLDSTYPTNETSSTPGAVAGSCSTSSGVPAQVESQSPNAKVTFSNIKFGPIGSTGNPSGGNPPGGNRGTTTTRRPATTTGSSPGPTQSHYGQCGGIGYSGPTVCASGTTCQVLNPYYSQCL | 9570 | 1670 | 5.7 | 1.59 | 2.1 | – | – | – | – | – |
| 268His+411A (protein, UniProt P62694 18-513, looked up, variant R268H R411A) Exoglucanase 1: QSACTLQSETHPPLTWQKCSSGGTCTQQTGSVVIDANWRWTHATNSSTNCYDGNTWSSTLCPDNETCAKNCCLDGAAYASTYGVTTSGNSLSIGFVTQSAQKNVGARLYLMASDTTYQEFTLLGNEFSFDVDVSQLPCGLNGALYFVSMDADGGVSKYPTNTAGAKYGTGYCDSQCPRDLKFINGQANVEGWEPSSNNANTGIGGHGSCCSEMDIWEANSISEALTPHPCTTVGQEICEGDGCGGTYSDNHYGGTCDPDGCDWNPYRLGNTSFYGPGSSFTLDTTKKLTVVTQFETSGAINRYYVQNGVTFQQPNAELGSYSGNELNDDYCTAEEAEFGGSSFSDKGGLTQFKKATSGGMVLVMSLWDDYYANMLWLDSTYPTNETSSTPGAVAGSCSTSSGVPAQVESQSPNAKVTFSNIKFGPIGSTGNPSGGNPPGGNRGTTTTRRPATTTGSSPGPTQSHYGQCGGIGYSGPTVCASGTTCQVLNPYYSQCL | 5270 | 1410 | 3.7 | 1.35 | 1.8 | – | – | – | – | – |
| 268Cys+411A (protein, UniProt P62694 18-513, looked up, variant R268C R411A) Exoglucanase 1: QSACTLQSETHPPLTWQKCSSGGTCTQQTGSVVIDANWRWTHATNSSTNCYDGNTWSSTLCPDNETCAKNCCLDGAAYASTYGVTTSGNSLSIGFVTQSAQKNVGARLYLMASDTTYQEFTLLGNEFSFDVDVSQLPCGLNGALYFVSMDADGGVSKYPTNTAGAKYGTGYCDSQCPRDLKFINGQANVEGWEPSSNNANTGIGGHGSCCSEMDIWEANSISEALTPHPCTTVGQEICEGDGCGGTYSDNCYGGTCDPDGCDWNPYRLGNTSFYGPGSSFTLDTTKKLTVVTQFETSGAINRYYVQNGVTFQQPNAELGSYSGNELNDDYCTAEEAEFGGSSFSDKGGLTQFKKATSGGMVLVMSLWDDYYANMLWLDSTYPTNETSSTPGAVAGSCSTSSGVPAQVESQSPNAKVTFSNIKFGPIGSTGNPSGGNPPGGNRGTTTTRRPATTTGSSPGPTQSHYGQCGGIGYSGPTVCASGTTCQVLNPYYSQCL | – | 1560 | 14.4 | – | 0.2 | – | – | – | – | – |
| 268Gln+411A (protein, UniProt P62694 18-513, looked up, variant R268Q R411A) Exoglucanase 1: QSACTLQSETHPPLTWQKCSSGGTCTQQTGSVVIDANWRWTHATNSSTNCYDGNTWSSTLCPDNETCAKNCCLDGAAYASTYGVTTSGNSLSIGFVTQSAQKNVGARLYLMASDTTYQEFTLLGNEFSFDVDVSQLPCGLNGALYFVSMDADGGVSKYPTNTAGAKYGTGYCDSQCPRDLKFINGQANVEGWEPSSNNANTGIGGHGSCCSEMDIWEANSISEALTPHPCTTVGQEICEGDGCGGTYSDNQYGGTCDPDGCDWNPYRLGNTSFYGPGSSFTLDTTKKLTVVTQFETSGAINRYYVQNGVTFQQPNAELGSYSGNELNDDYCTAEEAEFGGSSFSDKGGLTQFKKATSGGMVLVMSLWDDYYANMLWLDSTYPTNETSSTPGAVAGSCSTSSGVPAQVESQSPNAKVTFSNIKFGPIGSTGNPSGGNPPGGNRGTTTTRRPATTTGSSPGPTQSHYGQCGGIGYSGPTVCASGTTCQVLNPYYSQCL | 9130 | – | – | 2.13 | 2.8 | – | – | – | – | – |
